According to patent US20240301049A1 (Ablynx, published 2024):
Several values for one entry are separate records, joined by “and”; a condition that tells them apart may be missing. Equal values may be shown once.

Experiments:
cyno TNF-α [1] = molecular target: T1, cyno TNF-α (cynomolgus monkey, UniProt P79337 77-233); assay: cell-based or functional assay
human IL-6 [2] = molecular target: T2, human IL-6 (human, UniProt P05231 30-212); assay: cell-based or functional assay
cyno IL-6 [3] = molecular target: T3, cyno IL-6 (cynomolgus monkey, UniProt P79341 28-212, limits assumed); assay: cell-based or functional assay
T3 sequence (looked up): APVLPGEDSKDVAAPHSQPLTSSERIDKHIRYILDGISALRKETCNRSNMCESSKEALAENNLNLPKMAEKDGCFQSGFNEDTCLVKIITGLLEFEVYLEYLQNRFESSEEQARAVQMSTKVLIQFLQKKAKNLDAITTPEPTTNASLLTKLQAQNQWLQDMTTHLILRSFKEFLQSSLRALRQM

human TNF-α [4] = molecular target: T4, human TNF-α (human, UniProt P01375 77-233); assay: cell-based or functional assay
T4 sequence (P01375 77-233 limits assumed): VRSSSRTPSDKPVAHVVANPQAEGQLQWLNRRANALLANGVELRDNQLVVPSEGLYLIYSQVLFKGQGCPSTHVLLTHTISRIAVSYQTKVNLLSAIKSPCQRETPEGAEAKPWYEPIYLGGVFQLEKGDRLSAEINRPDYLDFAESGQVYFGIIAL

cyno TNF-α [5] = molecular target: T1, cyno TNF-α; assay: in-solution affinity, Gyrolab
Description: (§1) Fitting of the dilution series was done using Gyrolab Analysis software, where KD- and receptor-controlled curves were analyzed to determine the KD value.

human IL-6 [6] = molecular target: T2, human IL-6; assay: in-solution affinity, Gyrolab
Description: as §1

mouse serum albumin = molecular target: T5, mouse serum albumin (mouse, UniProt P07724 25-608); assay: in-solution affinity, Gyrolab
T5 construct: also called mouse SA
Description: as §1

cyno serum albumin = molecular target: T6, cyno serum albumin (cynomolgus monkey, UniProt A2V9Z4 25-608); assay: in-solution affinity, Gyrolab
T6 construct: also called cyno SA
T6 sequence (A2V9Z4 25-608 limits assumed): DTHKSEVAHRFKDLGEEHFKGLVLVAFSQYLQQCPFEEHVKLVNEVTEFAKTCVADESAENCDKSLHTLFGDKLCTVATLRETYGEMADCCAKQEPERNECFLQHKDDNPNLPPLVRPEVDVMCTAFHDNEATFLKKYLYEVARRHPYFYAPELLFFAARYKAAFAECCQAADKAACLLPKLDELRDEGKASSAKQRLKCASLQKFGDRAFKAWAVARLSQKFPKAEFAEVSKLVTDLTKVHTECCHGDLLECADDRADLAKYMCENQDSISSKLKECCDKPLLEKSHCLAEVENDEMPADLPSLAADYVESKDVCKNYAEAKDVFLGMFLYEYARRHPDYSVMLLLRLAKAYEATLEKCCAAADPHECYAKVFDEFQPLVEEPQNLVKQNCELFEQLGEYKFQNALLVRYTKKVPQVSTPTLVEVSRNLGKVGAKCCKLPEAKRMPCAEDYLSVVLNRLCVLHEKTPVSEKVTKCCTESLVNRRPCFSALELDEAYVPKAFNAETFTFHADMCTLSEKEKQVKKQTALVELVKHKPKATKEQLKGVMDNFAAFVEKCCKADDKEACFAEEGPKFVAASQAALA
Description: as §1

human TNF-α [7] = molecular target: T4, human TNF-α; assay: in-solution affinity, Gyrolab
Description: as §1

human serum albumin = molecular target: T7, human serum albumin (human, UniProt P02768 25-609); assay: in-solution affinity, Gyrolab
T7 construct: also called HSA; human SA
T7 sequence (P02768 25-609 limits assumed): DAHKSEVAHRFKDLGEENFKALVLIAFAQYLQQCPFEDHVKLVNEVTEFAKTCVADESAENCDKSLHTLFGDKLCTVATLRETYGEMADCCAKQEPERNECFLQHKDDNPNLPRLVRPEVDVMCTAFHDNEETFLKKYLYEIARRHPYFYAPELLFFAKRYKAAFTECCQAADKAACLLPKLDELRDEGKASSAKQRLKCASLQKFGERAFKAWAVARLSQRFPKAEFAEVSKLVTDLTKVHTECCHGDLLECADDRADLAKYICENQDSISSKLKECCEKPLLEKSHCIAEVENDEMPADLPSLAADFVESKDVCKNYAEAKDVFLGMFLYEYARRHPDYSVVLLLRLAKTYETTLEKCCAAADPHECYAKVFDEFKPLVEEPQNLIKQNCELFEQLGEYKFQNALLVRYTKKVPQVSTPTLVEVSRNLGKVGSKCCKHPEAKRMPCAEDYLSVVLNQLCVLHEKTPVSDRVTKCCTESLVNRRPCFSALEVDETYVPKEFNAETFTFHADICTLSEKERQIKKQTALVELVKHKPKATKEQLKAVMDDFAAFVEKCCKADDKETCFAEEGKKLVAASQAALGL
Description: as §1

cyno TNF-α [8] = molecular target: T1, cyno TNF-α; assay: cell-based or functional assay; remark: listed apart in the source
human TNF-α [9] = molecular target: T4, human TNF-α; assay: cell-based or functional assay; remark: listed apart in the source
human CD40L = molecular target: T8, human CD40L (human, UniProt P29965 113-261, limits assumed); assay: SPR (ProteOn XPR36), target immobilized
T8 sequence (looked up): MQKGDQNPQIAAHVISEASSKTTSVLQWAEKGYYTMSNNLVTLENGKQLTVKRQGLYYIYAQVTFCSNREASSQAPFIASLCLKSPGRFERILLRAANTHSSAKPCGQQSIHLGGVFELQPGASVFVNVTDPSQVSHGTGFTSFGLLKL

human oncostatin M = molecular target: T9, human oncostatin M (human, UniProt P13725 26-221, limits assumed); assay: SPR (ProteOn XPR36), target immobilized
T9 construct: also called OSM
T9 sequence (looked up): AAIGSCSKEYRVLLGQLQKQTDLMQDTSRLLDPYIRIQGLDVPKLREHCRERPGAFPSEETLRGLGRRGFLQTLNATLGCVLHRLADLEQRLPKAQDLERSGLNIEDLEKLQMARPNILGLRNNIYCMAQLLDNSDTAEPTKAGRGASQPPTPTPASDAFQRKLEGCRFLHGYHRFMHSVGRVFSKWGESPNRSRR

human TNFβ = molecular target: T10, human TNFβ (human, UniProt P01374 35-205); assay: SPR (ProteOn XPR36), target immobilized
T10 construct: the result sentence prints TNF; also called hTNFβ
T10 sequence (looked up): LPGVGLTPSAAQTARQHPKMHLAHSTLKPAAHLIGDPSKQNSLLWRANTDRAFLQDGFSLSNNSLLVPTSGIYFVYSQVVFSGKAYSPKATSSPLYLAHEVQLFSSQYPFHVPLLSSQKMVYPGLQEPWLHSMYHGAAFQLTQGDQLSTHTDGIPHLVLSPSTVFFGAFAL

cyno TNF-α [10] = molecular target: T1, cyno TNF-α; assay: cell-based or functional assay; remark: listed apart in the source
human IL-6 [11] = molecular target: T2, human IL-6; assay: cell-based or functional assay; remark: listed apart in the source
cyno IL-6 [12] = molecular target: T3, cyno IL-6; assay: cell-based or functional assay; remark: listed apart in the source
human TNF-α [13] = molecular target: T4, human TNF-α; assay: cell-based or functional assay; remark: listed apart in the source
[14] = molecular target: T11, human membrane TNFα expressed on HEK293H cells (human, UniProt P01375 1-233); assay: flow cytometry, HEK293H cells expressing human membrane TNFα, without HSA, 24 h
T11 construct: whole, on cells; also called membrane expressed TNFα
T11 sequence (P01375 whole entry): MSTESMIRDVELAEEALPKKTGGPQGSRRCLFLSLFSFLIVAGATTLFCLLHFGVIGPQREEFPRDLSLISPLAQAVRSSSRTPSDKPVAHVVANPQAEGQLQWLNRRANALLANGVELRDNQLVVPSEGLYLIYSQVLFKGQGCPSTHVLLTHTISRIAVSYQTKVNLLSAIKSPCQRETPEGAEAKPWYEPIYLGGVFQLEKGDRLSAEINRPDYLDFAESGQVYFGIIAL
Description: Briefly, cells were fixed with 4% paraformaldehyde and 0.1% glutaraldehyde in PBS (to increase detection of membrane bound TNFα). […] Cells were washed 3 times and subsequently incubated with an anti-VHH mAb (ABH00119) for 30 min at 4° C., washed again, and incubated for 30 min at 4° C. with a goat anti-mouse or anti-human PE labeled antibody. Samples were washed and resuspended in FACS Buffer (D-PBS with 10% FBS and 0.05% sodium azide supplemented with 5 nM TOPRO3). Cell suspensions were then analyzed on an iQuescreener. EC50 values were calculated using GraphPad Prism.

cyno IL-6 [15] = molecular target: T3, cyno IL-6; assay: cell-based or functional assay; remark: listed apart in the source
cyno TNF-α [16] = molecular target: T1, cyno TNF-α; assay: cell-based or functional assay; remark: listed apart in the source
human IL-6 [17] = molecular target: T2, human IL-6; assay: cell-based or functional assay; remark: listed apart in the source
cyno IL-6 [18] = molecular target: T3, cyno IL-6; assay: cell-based or functional assay; remark: listed apart in the source
human TNF-α [19] = molecular target: T4, human TNF-α; assay: cell-based or functional assay; remark: listed apart in the source

T1 sequence (P79337 77-233 limits assumed): as the sequence (P01375 77-233 limits assumed) above, with L37V, R44T, T72N, R138L counted along it

B1: F027201062 (bispecific antibody)
chain: DVQLVESGGGVVQPGGSLRLSCAASGRTFSNYAMAWFRQAPGKEREFVAVISYAGGRTYYADSVKGRFTISRDNAKNTVYLQMNSLRPEDTALYYCAAVDSPLIATHPRGYDYWGQGTLVTVSSGGGGSGGGSEVQLVESGGGVVQPGGSLRLSCAASGFTFRSFGMSWVRQAPGKGPEWVSSISGSGSDTLYADSVKGRFTISRDNSKNTLYLQMNSLRPEDTALYYCTIGGSLSRSSQGTLVTVSSGGGGSGGGSEVQLVESGGGVVQPGGSLRLSCAASGFTLAYYAIGWFRQAPGKEREGVSCISGSVGTTYYADSVKGRFTISRDNAKNTVYLQMNSLRPEDTALYYCVRSSWFDCGVQGRDLGNEYDYRGQGTLVTVSSGGGGSGGGSEVQLVESGGGVVQPGGSLRLSCTASGFTFSTADMGWFRQAPGKGREFVARISGIDGTTYYDEPVKGRFTISRDNSKNTVYLQMNSLRPEDTALYYCRSPRYADQWSAYDYWGQGTLVKVSSA
notes: anti-IL-6 (17C04, 6B12), anti-HSA (ALB23002), anti-TNF-α (6C11), C-terminal alanine; produced in Pichia pastoris; also called ISVD construct F027201062; Nanobody F027201062
- Ratio IC50 cyno TNFα/hTNFα (cyno TNF-α [1]): 2 ratio
- IC50 hIL-6 TF1 proliferation assay (human IL-6 [2]): 0.134 nM
- Ratio IC50 cyno IL-6/hIL-6 (cyno IL-6 [3]): 0.5 ratio
- IC50 hTNF-α Nfkb assay (human TNF-α [4]): 0.0978 nM
- Kd (cyno TNF-α [5]): 0.0538 nM and 0.0237 nM and 0.0259 nM
- Kd (human IL-6 [6]): 0.0073 nM and 0.0053 nM and 0.003 nM
- Kd (mouse serum albumin): 58.5 nM and 62.2 nM and 56 nM
- Kd (cyno serum albumin): 6.7 nM and 4.9 nM and 6.1 nM
- Kd (human TNF-α [7]): 0.0057 nM and 0.0052 nM and 0.0099 nM
- Kd (human serum albumin): 7.6 nM and 6.4 nM and 6.2 nM
- IC50, HEK293_NFκB-NLucP reporter assay (cyno TNF-α [8]): 0.16 nM and 0.0837 nM and 0.23 nM
- IC50, HEK293_NFκB-NLucP reporter assay (human TNF-α [9]): 0.0757 nM and 0.0257 nM and 0.0586 nM
- binding result (human CD40L): no binding (tested: 300 nM)
- binding result (human oncostatin M): no binding (tested: 300 nM)
- binding result (human TNFβ): no binding (tested: 300 nM)
- average IC50, NFκB reporter assay (cyno TNF-α [10]): 0.158 nM
- IC50 of IL-17A/sIL-6R induced VEGF-A release, RA-FLS (human IL-6 [11]): 2 nM
- average IC50, IL-6 induced TF-1 proliferation (human IL-6 [11]): 0.034 nM
- average IC50, IL-6 induced TF-1 proliferation (cyno IL-6 [12]): 0.056 nM
- IC50 of SEB-induced CCL4 release, human whole blood (human TNF-α [13]): 0.92 nM
- IC50 of SEB-induced MCP-1 release, human whole blood (human TNF-α [13]): 3.2 nM
- average IC50, NFκB reporter assay (human TNF-α [13]): 0.053 nM
- EC50 [14]: 0.12 nM and 0.18 nM and 0.17 nM
- IC50, IL-6 induced TF-1 proliferation (cyno IL-6 [15]): 0.0646 nM and 0.0592 nM and 0.0434 nM
- cyno TNF-α NFkb assay (IC50, pM) (cyno TNF-α [16]): 193 pM
- Ratio IC50 reference anti-IL-6 mAb1/Nb (human IL-6 [17]): 2.4 ratio
- hIL-6 TF1 proliferation assay (IC50, pM) (human IL-6 [17]): 134 pM
- cyno IL-6 TF1 proliferation assay (IC50, pM) (cyno IL-6 [18]): 65 pM
- Ratio IC50 reference anti-TNF-α mAb/Nb (human TNF-α [19]): 0.67 ratio
- hTNF-α Nfkb assay (IC50, pM) (human TNF-α [19]): 98 pM
